Measured values taken from publication PMC8268110.
Where “and” joins values, the source holds several entries; their conditions need not be identical. Equal entries are not always repeated.

Experiments:
[1] = target: Nrl1 (full length), BACTH fusion (S. pombe) (UniProt O42975); assay: two-hybrid; bacterial two-hybrid (BACTH) in E. coli BTH101; full-length ORFs in pUT18C and pKT25, both combinations; X-gal/IPTG plates and β-galactosidase activity assay at 28 °C in Miller units; eight biological replicates
[2] = target: Nrl1 (full length), BACTH fusion (S. pombe) (UniProt O42975); assay: two-hybrid; bacterial two-hybrid (BACTH) in E. coli BTH101; Nrl1 or its truncations in pUT18C, RNA-processing factors in pKT25; β-galactosidase activity assay at 28 °C in Miller units; eight biological replicates
[3] = target: Nrl1(C-term), C-terminal region (493–972 aa), BACTH fusion (S. pombe) (UniProt O42975); assay: as above
[4] = target: Nrl1(N-term), N-terminal region (1–159 aa), BACTH fusion (S. pombe) (UniProt O42975); assay: as above
[5] = target: Nrl1(N-term + NRDE-2), N-terminus with NRDE2 domain (1–492 aa), BACTH fusion (S. pombe) (UniProt O42975); assay: as above

Row | Substance | β-galactosidase activity (Miller units) [1] | β-galactosidase activity (Miller units) [2] | β-galactosidase activity (Miller units) [3] | β-galactosidase activity (Miller units) [4] | β-galactosidase activity (Miller units) [5]
1 | Ctr1, BACTH fusion (natural protein) | 977 Miller units and 1090 Miller units | 1080 Miller units | 708 Miller units | – | –
2 | Ntr2, BACTH fusion (natural protein) | 739 Miller units and 467 Miller units | 583 Miller units | 495 Miller units | – | –
3 | Mtl1, BACTH fusion (natural protein) | 1440 Miller units and 1450 Miller units | 1460 Miller units | – | 1510 Miller units | 1560 Miller units
